Results: paper PMC10653890, “The morphogenic protein CopD controls the spatio-temporal dynamics of PBP1a and PBP2b in Streptococcus pneumoniae” (mBio, 2023)

T1: PBP1aTP, transpeptidase domain of PBP1a (Ser266 to Asn650) (S. pneumoniae R800 strain, UniProt Q8DR59 266-650)
T1 construct: also called PBP1aTP-6his; source: E. coli BL21 star (DE3), purified (Ni-NTA; extracellular domain digested by trypsin; gel filtration)
T1 sequence (looked up): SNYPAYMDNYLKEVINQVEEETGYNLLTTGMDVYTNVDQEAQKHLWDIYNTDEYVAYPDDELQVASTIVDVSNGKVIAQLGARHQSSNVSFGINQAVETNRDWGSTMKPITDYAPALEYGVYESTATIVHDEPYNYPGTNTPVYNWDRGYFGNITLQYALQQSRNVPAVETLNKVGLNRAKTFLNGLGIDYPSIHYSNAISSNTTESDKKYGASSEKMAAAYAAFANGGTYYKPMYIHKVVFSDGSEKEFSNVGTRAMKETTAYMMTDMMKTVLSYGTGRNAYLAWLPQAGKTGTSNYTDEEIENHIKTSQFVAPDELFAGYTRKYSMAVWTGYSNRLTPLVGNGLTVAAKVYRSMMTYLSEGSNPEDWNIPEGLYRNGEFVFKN

B1: CopDED, extracellular two-PEPSY domain of CopD (Met38 to Leu162) (domain or fragment)
chain: SMKPYQTAKSEGEKLAQQYAGLEQADQVDLYNGLESYYSVLGRNKQQEALAVLIGKDDHKIYVYQLNQGISQEKAETVSKEKGAGEIDKITFGRYQDKPIWEVKSGSDFYLVDFETGALVNKEGL
modifications: labelled with the Protein labeling kit red NHS 2nd generation (Nanotemper)

Tests used:
[1] = molecular target: B1; assay: MST; Monolith NT.115; labelled CopDED at 168 nM, PBP2bTP 5.2 µM to 0.159 nM or PBP1aTP 4.5 µM to 0.137 nM; 20 mM HEPES pH 7.5, 300 mM NaCl, 10% glycerol, 0.1% Tween 20; 25°C; conditions: both partners purified
[2] = molecular target: T1, PBP1aTP, transpeptidase domain of PBP1a …; assay: as above; conditions: both partners purified

Binder | Kd [1] [µM] | Kd [2] [µM]
PBP2bTP, transpeptidase domain of PBP2b (Met39 to Asn685) (domain or fragment) MQVLNKDFYEKKLASASQTKITSSSARGEIYDASGKPLVENTLKQVVSFTRSNKMTATDLKETAKKLLTYVSISSPNLTERQLADYYLADPEIYKKIVEALPSEKRLDSDGNRLSESELYNNAVDSVQTSQLNYTEDEKKEIYLFSQLNAVGNFATGTIATDPLNDSQVAVIASISKEMPGISISTSWDRKVLETSLSSIVGSVSSEKAGLPAEEAEAYLKKGYSLNDRVGTSYLEKQYEETLQGKRSVKEIHLDKYGNMESVDTIEEGSKGNNIKLTIDLAFQDSVDALLKSYFNSELENGGAKYSEGVYAVALNPKTGAVLSMSGIKHDLKTGELTPDSLGTVTNVFVPGSVVKAATISSGWENGVLSGNQTLTDQSIVFQGSAPINSWYTQAYGSFPITAVQALEYSSNTYMVQTALGLMGQTYQPNMFVGTSNLESAMEKLRSTFGEYGLGTATGIDLPDESTGFVPKEYSFANYITNAFGQFDNYTPMQLAQYVATIANNGVRVAPRIVEGIYGNNDKGGLGDLIQQLQPTEMNKVNISDSDMSILHQGFYQVAHGTSGLTTGRAFSNGALVSISGKTGTAESYVADGQQATNTNAVAYAPSDNPQIAVAVVFPHNTNLTNGVGPSIARDIINLYQKYHPMN | > 10 | –
B1 | – | > 10
